The target in experiment [1] is PD-L1 (human) (UniProt Q9NZQ7).
In experiment [2] the target is CD28 (human) (UniProt P10747).
In experiment [3] the target is CD28 (human) (UniProt P10747). The experiment is described as follows: flow cytometry, Jurkat cells (CD28).
Experiment [4] deals with PD-L1 (human) (UniProt Q9NZQ7). The experiment can be described thus: flow cytometry, CHO cells expressing PD-L1. For orientation: Flow cytometry measures light scatter and fluorescence of single cells or particles in a stream.
The target of experiment [5] is PD-L1 (human) (UniProt Q9NZQ7). The experiment is described as follows: flow cytometry, CHO cells stably expressing PD-L1.
Experiment [6] concerns the target human CTLA-4 (human) (UniProt P16410). The experiment is described as follows: flow cytometry, CHO cells stably expressing CTLA4.
For experiment [7], the target named is CD28 (human) (UniProt P10747). The experiment is described as follows: flow cytometry, Jurkat cells (CD28). The source holds these as a separate data set.

Where two headings read alike, the source gives them in different places.

Chain of human CTLA-4 (human) (P16410 36-223): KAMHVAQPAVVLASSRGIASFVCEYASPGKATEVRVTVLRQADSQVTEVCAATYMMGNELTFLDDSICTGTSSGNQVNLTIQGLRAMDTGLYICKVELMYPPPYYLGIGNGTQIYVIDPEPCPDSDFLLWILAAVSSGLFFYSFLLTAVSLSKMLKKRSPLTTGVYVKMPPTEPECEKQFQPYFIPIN
Chain of PD-L1 (human) (Q9NZQ7 19-290): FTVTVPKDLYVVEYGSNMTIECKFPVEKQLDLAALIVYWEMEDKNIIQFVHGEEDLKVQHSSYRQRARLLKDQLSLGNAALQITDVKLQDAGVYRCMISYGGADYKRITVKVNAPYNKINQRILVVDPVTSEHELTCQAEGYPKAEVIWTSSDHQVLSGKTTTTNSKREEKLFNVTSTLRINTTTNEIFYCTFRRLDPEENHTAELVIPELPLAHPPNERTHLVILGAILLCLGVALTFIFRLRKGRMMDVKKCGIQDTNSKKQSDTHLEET

Take “CD80 H18Y/V20A/Q33L/E35D/M47V/Y53F IgV-Fc (inert) (Fc fusion)”: the Jurkat/IL2 reporter RLU at 50 nM, K562/OKT3/PD-L1 aAPC in experiment [1] and in experiment [2] was 566 RLU in each case.
On to “CD80 Q27H/E35D/M47L/L85Q/R94Q/E95K IgV-Fc (inert) (Fc fusion)”, for which the Jurkat/IL2 reporter RLU at 50 nM, K562/OKT3/PD-L1 aAPC in experiment [1] and in experiment [2] was 513 RLU throughout.
For the substance “CD80 E35D/M47V/T62A/A71G/V83A/Y87H/L97M IgV-Fc (inert) (Fc fusion)”, the Jurkat/IL2 reporter RLU at 50 nM, K562/OKT3/PD-L1 aAPC in experiment [1] and in experiment [2] was 438 RLU in each case.
Consider “CD80 H18L/V22A/E35D/M47L/N48T/L85Q IgV-Fc (inert) (Fc fusion)”, for which the Jurkat/IL2 reporter RLU at 50 nM, K562/OKT3/PD-L1 aAPC in experiment [1] and in experiment [2] was 2650 RLU throughout.
Regarding “CD80 V22A/E35D/V68E/A71D IgV-Fc (inert) (Fc fusion)”, the Jurkat/IL2 reporter RLU at 50 nM, K562/OKT3/PD-L1 aAPC in experiment [1] and in experiment [2] was 538 RLU throughout.
With “CD80 Q33L/E35D/M47L/V68M/L85Q/E88D IgV-Fc (inert) (Fc fusion)”, the Jurkat/IL2 reporter RLU at 50 nM, K562/OKT3/PD-L1 aAPC in experiment [1] and in experiment [2] was 572 RLU in each case.
“CD80 Q33R/E35D/D46E/M47I IgV-Fc (inert) (Fc fusion)”: the Jurkat/IL2 reporter RLU at 50 nM, K562/OKT3/PD-L1 aAPC in experiment [1] and in experiment [2] was 522 RLU in each case.
Regarding “CD80 Q33L/E35D/M47I/L85Q IgV-Fc (inert) (Fc fusion)”, the Jurkat/IL2 reporter RLU at 50 nM, K562/OKT3/PD-L1 aAPC in experiment [1] and in experiment [2] was 432 RLU each time.
In the case of “CD80 Q33L/E35D/N48K/L85Q/L97Q IgV-Fc (inert) (Fc fusion)”, the Jurkat/IL2 reporter RLU at 50 nM, K562/OKT3/PD-L1 aAPC in experiment [1] and in experiment [2] was 358 RLU each time.
On to “CD80 Q33L/E35D/M43V/M47I/A71G IgV-Fc (inert) (Fc fusion)”, for which the Jurkat/IL2 reporter RLU at 50 nM, K562/OKT3/PD-L1 aAPC in experiment [1] and in experiment [2] was 473 RLU throughout.
On to “CD80 Q33L/E35D/M47V IgV-Fc (inert) (Fc fusion)”, for which the Jurkat/IL2 reporter RLU at 50 nM, K562/OKT3/PD-L1 aAPC in experiment [1] and in experiment [2] was 393 RLU throughout.
“CD80 E7D/E35D/M47I/L97Q IgV-Fc (inert) (Fc fusion)”: the Jurkat/IL2 reporter RLU at 50 nM, K562/OKT3/PD-L1 aAPC in experiment [1] and in experiment [2] was 1240 RLU in each case.
Turning to “CD80 E24D/Q33L/E35D/M47V/K54R/L85Q IgV-Fc (inert) (Fc fusion)”, the Jurkat/IL2 reporter RLU at 50 nM, K562/OKT3/PD-L1 aAPC in experiment [1] and in experiment [2] was 3240 RLU throughout.
Regarding “CD80 H18Y/E35D/V68M/L97Q IgV-Fc (inert) (Fc fusion)”, the Jurkat/IL2 reporter RLU at 50 nM, K562/OKT3/PD-L1 aAPC in experiment [1] and in experiment [2] was 4340 RLU each time.
As to “CD80 V22D/E24D/E35D/M47L/V68M/L85M/D90G IgV-Fc (Fc fusion)”, the MFI at 33.3 nM in experiment [3] amounted to 1180 MFI; in experiment [4] it was 19000 MFI.
Take “CD80 E35D/M47L/A71G/L97Q IgV-Fc (inert) (Fc fusion)”: the Jurkat/IL2 reporter RLU at 50 nM, K562/OKT3/PD-L1 aAPC in experiment [1] and in experiment [2] was 2160 RLU each time.
Take “CD80 A26E/Q33R/E35D/M47L/L85Q/K86E IgV-Fc (inert) (Fc fusion)”: the Jurkat/IL2 reporter RLU at 50 nM, K562/OKT3/PD-L1 aAPC in experiment [1] and in experiment [2] was 569 RLU each time.
Turning to “CD80 H18Y/E35D/M47L IgV-Fc (inert) (Fc fusion)”, the Jurkat/IL2 reporter RLU at 50 nM, K562/OKT3/PD-L1 aAPC in experiment [1] and in experiment [2] was 2980 RLU each time.
As for “CD80 V22D/E24D/E35D/M47L/V68M IgV-Fc (Fc fusion)”, the MFI at 33.3 nM was 1250 MFI in experiment [3] and 15400 MFI in experiment [4].
On to “CD80 Q33L/E35D/M43I/L85Q/R94W IgV-Fc (inert) (Fc fusion)”, for which the Jurkat/IL2 reporter RLU at 50 nM, K562/OKT3/PD-L1 aAPC in experiment [1] and in experiment [2] was 553 RLU each time.
For “CD80 Q33L/E35D/T41S/M43I IgV-Fc (inert) (Fc fusion)”, the Jurkat/IL2 reporter RLU at 50 nM, K562/OKT3/PD-L1 aAPC in experiment [1] and in experiment [2] was 533 RLU in each case.
As to “CD80 A26E/Q33L/E35D/M47L IgV-Fc (inert) (Fc fusion)”, the Jurkat/IL2 reporter RLU at 50 nM, K562/OKT3/PD-L1 aAPC in experiment [1] and in experiment [2] was 476 RLU each time.
“CD80 Q33L/E35D/D46E/M47I IgV-Fc (inert) (Fc fusion)”: the Jurkat/IL2 reporter RLU at 50 nM, K562/OKT3/PD-L1 aAPC in experiment [1] and in experiment [2] was 554 RLU each time.
Turning to “CD80 V22A/R29H/E35D/D46E/M47I IgV-Fc (inert) (Fc fusion)”, the Jurkat/IL2 reporter RLU at 50 nM, K562/OKT3/PD-L1 aAPC in experiment [1] and in experiment [2] was 3310 RLU throughout.
Take “CD80 Q33L/E35D/M47V/T79A IgV-Fc (inert) (Fc fusion)”: the Jurkat/IL2 reporter RLU at 50 nM, K562/OKT3/PD-L1 aAPC in experiment [1] and in experiment [2] was 527 RLU throughout.
Turning to “CD80 A26E/Q33L/E35D/M47L/L85Q IgV-Fc (inert) (Fc fusion)”, the Jurkat/IL2 reporter RLU at 50 nM, K562/OKT3/PD-L1 aAPC in experiment [1] and in experiment [2] was 416 RLU each time.
On to “CD80 Q33K/E35D/M47V/K89E/K93R IgV-Fc (inert) (Fc fusion)”, for which the Jurkat/IL2 reporter RLU at 50 nM, K562/OKT3/PD-L1 aAPC in experiment [1] and in experiment [2] was 415 RLU in each case.
Turning to “CD80 E35D/D46E/M47L/V68M/T79M/L85M IgV-Fc (Fc fusion)”, the MFI at 33.3 nM in experiment [3] was determined as 403 MFI; in experiment [4], 8640 MFI.
On to “CD80 Q33L/E35D/M47I/T62N/L85Q IgV-Fc (inert) (Fc fusion)”, for which the Jurkat/IL2 reporter RLU at 50 nM, K562/OKT3/PD-L1 aAPC in experiment [1] and in experiment [2] was 463 RLU in each case.
Consider “CD80 Q33L/E35D/M47I IgV-Fc (inert) (Fc fusion)”, for which the Jurkat/IL2 reporter RLU at 50 nM, K562/OKT3/PD-L1 aAPC in experiment [1] and in experiment [2] was 423 RLU throughout.
For “CD80 H18Y/Q33L/E35D/M47I IgV-Fc (inert) (Fc fusion)”, the Jurkat/IL2 reporter RLU at 50 nM, K562/OKT3/PD-L1 aAPC in experiment [1] and in experiment [2] was 486 RLU in each case.
Turning to “CD80 E35D/D46E/M47L/V68M/A71G/Y87C/K93R IgV-Fc (Fc fusion)”, the MFI at 33.3 nM in experiment [4] amounted to 24300 MFI.
As for “CD80 H18Y/Y31H/E35D/M47V/A71G/L85Q IgV-Fc (inert) (Fc fusion)”, the Jurkat/IL2 reporter RLU at 50 nM, K562/OKT3/PD-L1 aAPC in experiment [1] and in experiment [2] was 455 RLU each time.
On to “CD80 S15P/Q33L/E35D/M47L/L85Q IgV-Fc (inert) (Fc fusion)”, for which the Jurkat/IL2 reporter RLU at 50 nM, K562/OKT3/PD-L1 aAPC in experiment [1] and in experiment [2] was 468 RLU throughout.
Turning to “CD80 Q27H/Q33L/E35D/M47V/N55D/L85Q/K89N IgV-Fc (inert) (Fc fusion)”, the Jurkat/IL2 reporter RLU at 50 nM, K562/OKT3/PD-L1 aAPC in experiment [1] and in experiment [2] was 551 RLU in each case.
In the case of “CD80 E35D/M47I/K54R/L85E IgV-Fc (inert) (Fc fusion)”, the Jurkat/IL2 reporter RLU at 50 nM, K562/OKT3/PD-L1 aAPC in experiment [1] and in experiment [2] was 602 RLU in each case.
In the case of “CD80 A26E/E35D/M43T/M47L/L85Q/R94Q IgV-Fc (inert) (Fc fusion)”, the Jurkat/IL2 reporter RLU at 50 nM, K562/OKT3/PD-L1 aAPC in experiment [1] and in experiment [2] was 526 RLU each time.
For the substance “CD80 Q33L/E35D/M47V/L85Q IgV-Fc (inert) (Fc fusion)”, the Jurkat/IL2 reporter RLU at 50 nM, K562/OKT3/PD-L1 aAPC in experiment [1] and in experiment [2] was 556 RLU each time.
“CD80 E35D/M47V/A71G/L85M/L97Q IgV-Fc (inert) (Fc fusion)”: the Jurkat/IL2 reporter RLU at 50 nM, K562/OKT3/PD-L1 aAPC in experiment [1] and in experiment [2] was 576 RLU in each case.
Turning to “CD80 E35D/D46E/M47V/L97Q IgV-Fc (inert) (Fc fusion)”, the Jurkat/IL2 reporter RLU at 50 nM, K562/OKT3/PD-L1 aAPC in experiment [1] and in experiment [2] was 1090 RLU each time.
“CD80 T13R/E35D/M47L/V68M IgV-Fc (Fc fusion)”: the MFI at 33.3 nM in experiment [3] came to 15.6 MFI; in experiment [4], 20000 MFI.
For “CD80 Q33L/E35D/T41S/M47V IgV-Fc (inert) (Fc fusion)”, the Jurkat/IL2 reporter RLU at 50 nM, K562/OKT3/PD-L1 aAPC in experiment [1] and in experiment [2] was 481 RLU throughout.
For the substance “CD80 Q33R/E35D/K37E/M47V/L85Q IgV-Fc (inert) (Fc fusion)”, the Jurkat/IL2 reporter RLU at 50 nM, K562/OKT3/PD-L1 aAPC in experiment [1] and in experiment [2] was 464 RLU each time.
For the substance “CD80 E35D/M47I/E77A/L85Q/R94W IgV-Fc (inert) (Fc fusion)”, the Jurkat/IL2 reporter RLU at 50 nM, K562/OKT3/PD-L1 aAPC in experiment [1] and in experiment [2] was 473 RLU each time.
Turning to “variant CD80 IgV-Fc H18Y/A26E/E35D/M47L/V68M/A71G (Fc fusion)”, the Fold change to WT CD80 amounted to 655 fold in experiment [5] and 18.7 fold in experiment [6]. For the same substance, the results for the MFI at 33.3 nM in experiment [5], in experiment [6] and in experiment [7] were 28500 MFI, 25400 MFI and 526 MFI, respectively.
With “CD80 Y31S/E35D/M47L/T79L/E88G IgV-Fc (inert) (Fc fusion)”, the Jurkat/IL2 reporter RLU at 50 nM, K562/OKT3/PD-L1 aAPC in experiment [1] and in experiment [2] was 496 RLU in each case.
With “variant CD80 IgV-Fc E35D/M47L/V68M/A71G/D90G (Fc fusion)”, the MFI at 33.3 nM in experiment [5] was 29400 MFI; in experiment [6], 26000 MFI; in experiment [7] it was 3070 MFI.
The like results for “variant CD80 IgV-Fc A26E/M47L/V68M/D90G (Fc fusion)” were, in that order, 10600 MFI, 21900 MFI and 2580 MFI.
The like results for “variant CD80 IgV-Fc A26E/M47L/V68M/A71G/D90G (Fc fusion)” were, in that order, 28100 MFI, 21800 MFI and 2790 MFI.
As for “CD80 E35D/M47I/V68M/Y87N IgV-Fc (Fc fusion)”, the MFI at 33.3 nM in experiment [4] was found to be 13100 MFI.

For the origin of these results see patent US20220177587A1, “METHODS AND USES OF VARIANT CD80 FUSION PROTEINS AND RELATED CONSTRUCTS” (Alpine Immune Sciences, Inc., priority 2018, published 2022).
